From the supplement of paper PMC10567573

B1: IRX6 (parent)
chain: YPCLEKPRIWSLAHTATASAVEGA
B2: ZNF8 (parent)
chain: KPYTCSVCGKSFSRTTCLFLHLRT

Variants of: B1
Assay: protein stability index of a GFP-peptide fusion (GPS, HEK-293T) (PSI 1-6); higher = more stable
Conditions: c terminus: a fixed tail appended
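Further: lentivirally expressed fusions sorted by FACS into six bins by GFP to DsRed ratio, PSI derived from sequencing read proportions per bin multiplied by bin number.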

Protein stability index: each site, then its substitutions
L4: Y 2.53; P 2.5; W 2.68; F 2.58; K 2.37; A 4.55; Q 1.49; I 2.46; E 2.64; S 1.81; T 3.03; V 2.07; M 4.4
W10: L 3.78; T 4.09; M 3.65; G 4; D 4.13; N 4.27; F 1.98; A 4.14; P 4.3; V 3.85; C 3.19; K 4.42; Y 1.62; H 4.23; R 4.26; Q 4.16; S 4.42; I 3.27; E 4.71
P7: C 2.69; Q 2.32; E 2.27; D 4.03; A 3.29; T 3.24; V 1.89; Y 2.59; K 3.5; M 2.92; H 2.44; G 2.84
H14: S 2.18; D 2.01; M 2.34; V 3.43; L 3.94; Q 2.52; I 1.41; F 4.18; P 2.48; K 1.66; E 1.84
L12: G 2.03; M 2.36; D 2.91; I 2.81; R 2.19; V 1.58; F 2.26; E 1.7; P 3.53; N 1.72; C 3.12; K 2.72; Q 2.87; T 2.72
S11: D 1.74; Q 1.53; M 1.82; V 1.99; F 1.94; K 2.58; I 2.48; A 1.3; L 1.87; N 2.31; E 1.99; C 1.61; H 1.86; R 2.05; Y 2.16
T17: P 2.72; K 2; N 2.37; A 1.71; D 2.17; E 3.16; M 2.36; G 3.55; Q 4.21; L 1.25
P2: Q 2.98; N 4.81; Y 2.69; V 2.51; D 2.28; I 2.96; A 2.82; K 2.82; M 3.06; S 1.7; F 2.41; L 1.88; T 3.4; G 3.7; H 2.9; E 2.29; W 3.12; R 2.37
T15: I 1.72; R 3.79; L 1.12; D 2.85; H 3.31; A 2.74; C 3.17; G 1.75; S 2.26; K 3.51; W 2.34
E5: V 4.3; W 1.9; R 3.21; A 1.95; C 3.7; F 3.7; K 2.92; N 2.34; P 2.63; T 3.97; Q 3.22; S 2.98; L 3.24; D 2.81; Y 2.68; H 2.37; G 3.15
K6: L 1.2; H 1.79; N 1.48; W 2.69; F 2.54; R 1.88; P 2.1; I 1.59; G 2.34; M 2.41; V 2.61; S 3.68
I9: A 3.17; N 2.48; Y 2.3; E 3.59; S 1.65; T 1.51; M 3.85; C 1.98; G 2.2; D 3.49; L 2.98; K 2.46; F 2.3; H 1.25; Q 2.28; R 2.27; P 2.35; V 3.31
A16: M 3.88; H 1.77; D 1.89; F 5.06; K 2.68; N 3.02; C 2.12; L 1.87; Q 2.45; Y 2.99; W 3.44; T 3.04; E 4.29; S 1.93; V 4.23; P 1.53; I 1.94
R8: Q 1.96; F 2.49; M 2.79; H 1.83; N 3.06; I 2.87; E 2.22; D 3.96; C 3.13; P 2.2; V 2.48; Y 2.17; L 3.04
C3: M 2.28; I 1.74; E 1.85; P 2.12; W 1.68; G 2.91; R 2.76; K 3.76; Y 1.54; S 2.46; F 3.06; V 1.66; N 1.37; T 2.85; Q 2.14; L 1.86; D 1.58; A 1.96; H 2.16
A13: H 2.74; P 2.35; G 2.44; V 3.26; T 1.96; Y 3.33; M 1.35; E 2.17; Q 2.46; I 3.27; K 2.9; D 2.71
Y1: P 4.08; K 3.73; G 3.53; R 3.33; D 3.84; M 3.83; C 2.82; L 3.59; W 2.82; H 2.54; I 2.88; F 1.86; E 4.33; N 3.84; V 3.89; S 3.81; Q 3.79; T 3.36; A 4.1

Variants of: B2
Assay: as above
Conditions: c terminus: a fixed tail appended

Protein stability index, by site and new letter:
G9: E 1.71; A 2.76; K 1.87
C17: S 1.84; M 2.13; D 3.67; G 2.22
C5: T 3.19; A 1.97
T15: H 1.83
K10: H 1.86; Q 2.18; I 1.65; Y 2.21
T4: L 2.19; G 2.51; Q 1.49; A 1.43
C8: I 2.07; M 2.19
L18: G 2.44; T 2.27; C 2.31
L22: K 2.74; H 1.81; T 2.1; A 2.08; V 1.85; P 2.78
H21: I 1.59; Y 1.57; R 1.4; S 2.04
L20: E 3.07; N 2.56; Y 1.94
F19: I 1.91; C 3.11
Y3: K 1.91; E 1.76; W 1.7; S 1.74; N 1.71
F12: D 2.22; K 2.88; Y 2.15
S13: Q 2.38
T16: R 1.82; P 2.67; K 1.56; G 2.6; L 1.79; H 2.36
K1: V 1.72; N 2.36; S 1.93; W 1.74; M 2.22
T24: N 2.35; A 1.96
R14: C 3.41; D 3.85; Y 1.93
P2: D 2.33; R 1.77; F 1.48; H 2.5; M 1.98; C 1.86; Q 1.87
S11: C 1.91; P 1.72; Y 2.2; H 3.04
S6: W 1.66
V7: T 1.91; C 2.82; I 2.2; N 2.15; A 2.12
R23: A 2.29; I 2.05; E 2.26; H 2.32
